The record followed here is the DeepSol protein solubility set.

The data set in a line: soluble on expression in E. coli; label from the status in PepcDB or PDB records.
On to “MSLGNTGVASADYLTAPFYNPALVASFEEHDDFGLLLPAIGVNVRDSDESLATIDDLQDSIDEFEAAPIPSPGQIDQLNRYLDDLQGNAPLTASSSLGLAVAIPTKRFSTNLFARGYLELIARPNIADYLSTGPGNEVADTKKRYEDSSVTMAAFGYVEYGAALAKEFEIKEQRISFGVTPKIQQLTTYYVVPTVADFELDDYEESEHKESAFNLDFGVVWLKDKFQVALAVKDLLSQEIDLKDKNGQKQDVYELNTQVSAGVAYRSDFFTAAMDLDLTKQERFKSLDDETQFVRFGVEGNAWGWAQLRAGYEIDLEDTVENAFTAGIGISPFDVVSLDIAGSYAGENQFGVSGNLAFTFEGHHHHHH”, for which the “soluble on expression in E. coli” value is on record as “not soluble”. For “VKLVIDLLGAQTRSHLRGIGRYTRELTKALLRQAGEAHAIHLVLHAPLEQASDALIAEFGALLPRARIHLLRLPRHTSEHLTGNTWRHHAASRLSRYGLTCLDADVVWHSSVFEGYDEDGVLPDAPLFHTNRVATLYDLIPLHDPEVFLPGSLPKAWYERRSAFLSSCDLLFCLSEWTAQEAVQRLHLDPERLVVIGGGVDSNFRPLVFDAQQRGNLLARFSITRPYVLYNGGLDQRKNVPALLRAFALLPMAIRQRHQLVVLGDDREVHRPMMALCRQLGLDQQEVVFTGRVNDSDLVALYGLCALFVFPSRLEGFGLPVLEAMACGAPTLCSDAASLPEVAGRQDILFPPEDHVALSARMSQVLDDPQWLQSLRDYGLRRATAFTWDRVAQRALDALTRLQVRSSEMKSQRVSEVSPATHTETAAPEMLPITEIQLVTDLAALPGDASRDDLAQAAFSICSMRVAPQAPQWLVDVSQIAKTDIGTGTSRVTRSILREWLSTPPPGVCIVPVYLREGQYHYARSFTAQVLGLVSETPQEGIVMVYPGDVFVGLDWAPEAINAARARLQDWRRVGVATCFVVHDLLPMTLPDCFHPYSRNLFEQWLRTVAHLADAIACISATTAEVLSRWLQDTTVDYQFGIPPQVKHFPLGVSFPEVSTAQEAIREELRTALVMRPTLLIVGTLEPRKGHVHALRICEQLWEQGEDVNLVVVGQRGWSEQALVMRLTRHPEVGRRLFWLSDAADAELSALYVHATALLALSEGEGYGLPLLEAAHFRLPILARPLPVFLEIMADYPHYLDGTAPDTWSATVAQWLHASDRPISRPVPIASWKESAQQLADIVNDCRFLLDSKKLSAPLK”, the “soluble on expression in E. coli” value is “soluble”. With “LCPDPDDDEGLIVSDSDGMIVDVTEPLPRVTGYSKSELLGMETAALFWLRDGDNHSGHTRAPVSETEGRSHGLLECADGSRITVEQRSYTVRPEAETHVCTTVLFPGDGE” the entry was “not soluble”. The value for “MPAELLLYRSNLLGSDLTVTNFGGGNTSAKLEEMDPLTGEPVEVLWVKGSGGDIGSMKIDGFATLYQAKLLGLEAHYAGPQDDDKMVGFLPHCTFNLNCRAASIDTPLHSLLPFAHVDHVHPDAIIALAASSGGEAATKEIWGGRIGWLPWKRPGYTLGVMLRDFVKANPGVEGVMLAGHGIICWADSAKACYEHTVRLIADAAGYLNARLAEKPAFGGRLEHHHHHH” was “not soluble”. On to “MGSDKIHHHHHHALGDQTLRKGQSHPDVKELQEALKKKGFFNYHTSTGYFGSITEDAVREFQMKHGLQVDGIAGPQTLNALLSQMNGNNGGQQTSSSAPNSTSNSTILRFGSSGQAVRDLQEKLKAKGYYNHSITGQYGRITTEAVREFQRANRLTVDGIAGPQTLAALTNQAPAASAPQYNAPVQQTTVLRQGSRGDAVRDLQRSLKDLGYYKSSIDGIFGAGTTTAVREFQRKMGLTVDGVAGPQTLNALHVNPTPNTSNGQSSSSGGNTASSGNRGATITNIVANASELIGTPYVWGGTTPRGFDCSGFVQYVFAQQGVSIPRTVAQMWNAGTSVSQPSVGDIVFFDTTGGPSHNGIYIGNNQFIHSGSSTGVTIASMNNSYWASRYLGAKRLY”, for which the “soluble on expression in E. coli” value is listed as “not soluble”. With “MSLATIKDVAQRAGVSPSTASRAMHGSKIISKPTRDKVIKAARELNYAPDFNAQNLATKASNTIGVVLPVDHHEIFSNPFFLEMIRGINEVCSKNGAMTTLATGISSDELVHNIDVMIAQGHIKTFILLYSEKNDPVVERLKQFDVQYVVIGKPYQDVNKTSYVDNDNIQAGTDAAQYLIDHGHRRIGFLYSDLSRMVQSDRMLGYQRVMMQNQLPNIMLEERFETHAAGVKTLHKFFEQYPDVTGFVAVDDMLALKLQQVLHNDPNWKVKQFSLIGFNNSIFSDLAHPMLTSIAVFPQRLGEEAAKIAMADHPADELSTAVIVPHQIVKRHSVHQIKSEGHHHHHH” the entry was “soluble”.
